Key:
[1] = target: T1, human BCMA on cells (endogenous, on multiple myeloma and lymphoma cell lines) (human, UniProt Q02223 1-184); test: cell-based or functional assay
T1 sequence: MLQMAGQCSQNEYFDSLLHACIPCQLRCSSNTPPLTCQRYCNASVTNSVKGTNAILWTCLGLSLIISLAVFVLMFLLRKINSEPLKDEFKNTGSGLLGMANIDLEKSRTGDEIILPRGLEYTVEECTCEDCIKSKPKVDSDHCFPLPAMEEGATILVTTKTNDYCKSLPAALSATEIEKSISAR

[2] = target: T2, cynomolgus CD3 on primary cynomolgus CD8+ T cells (cynomolgus, UniProt Q95LI5 22-198; Q95LI8 22-171; Q95LI7 23-181); test: flow cytometry on primary cynomolgus CD8+ T cells, n=1
T2 construct: whole, on cells; Endogenous CD3 complex on primary cells; also called Mf (Cyno) CD8+ T cells
T2 sequence (Q95LI5 22-198, chain 1 of 3): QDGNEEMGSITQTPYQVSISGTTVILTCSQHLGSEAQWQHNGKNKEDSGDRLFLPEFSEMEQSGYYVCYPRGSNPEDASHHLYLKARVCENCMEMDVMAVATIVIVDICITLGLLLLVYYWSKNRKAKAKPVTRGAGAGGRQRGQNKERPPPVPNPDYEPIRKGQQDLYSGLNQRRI
T2 sequence (Q95LI8 22-171, chain 2 of 3): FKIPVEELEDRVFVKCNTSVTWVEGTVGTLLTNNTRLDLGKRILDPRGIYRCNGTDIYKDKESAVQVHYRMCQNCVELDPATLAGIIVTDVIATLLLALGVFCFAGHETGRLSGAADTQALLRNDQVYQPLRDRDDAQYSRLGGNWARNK
T2 sequence (Q95LI7 23-181, chain 3 of 3): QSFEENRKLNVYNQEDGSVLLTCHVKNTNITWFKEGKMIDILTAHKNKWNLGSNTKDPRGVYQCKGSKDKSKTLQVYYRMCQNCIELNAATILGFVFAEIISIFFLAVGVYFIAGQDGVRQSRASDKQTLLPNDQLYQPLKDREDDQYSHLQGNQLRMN
Experimental: Flow cytometric analysis was utilized to determine binding of BCMA×CD3 bispecific antibodies to human and cynomolgus CD3 (Jurkat cells, mfCD3 engineered Jurkat cells, primary human CD8+ and cynomolgus CD8+ T cells). Briefly, 1e05 cells/well were incubated in the presence of FACS wash with block (PBS+1% filtered FBS+5% mouse serum) with a serial dilution of BCMA×CD3 and control antibodies for 30 minutes on ice. After incubation, the cells were washed twice with cold FACS wash (PBS+1% filtered FBS) and bound antibody was detected by incubating with Alexa647-conjugated anti-human secondary antibody on ice for an additional 30 minutes. Wells containing no antibody or secondary only were used as a control. For the detection of monkey and human T cells, a cocktail of human and cynomolgus cross-reactive antibodies to CD4, CD8 and CD16 was added to the anti-human secondary. After incubation, cells were washed, re-suspended in 200 μL cold PBS containing 1% filtered FBS and analyzed by flow cytometry on a BD FACS Canto II. Cells were gated by FSC-H by FSC-A to select singlet events, followed by side and forward scatters to select for live events. For monkey T cells, additional gating on CD8+/CD16− cells was performed.
EC50 values for FACS binding were calculated using 4-parameter non-linear regression analysis in Prism software.

[3] = target: T1, human BCMA on cells (endogenous, on …); test: flow cytometry on MM.1S cells, Alexa647 conjugate
Experimental: (§1) Cells were then washed and fixed for 25 mins at 4° C. using a 50% solution of BD Cytofix (BD, Cat #554655) diluted in PBS. […] After gating for live cells and single cells, the mean fluorescent intensity (MFI) was determined, and MFI values were plotted in Graphpad Prism using a four-parameter logistic equation over a 10-point response curve to calculate EC₅₀s. The zero condition for each dose-response curve is also included in the analysis as a continuation of the two-fold serial dilution and is represented as the lowest dose. The signal to noise (S/N) is determined by taking the ratio of the mAb25442D-A647 MFI to the Isotype-A647 MFI. (Table 13). The mAb25442D-A647 S/N ranged from 2 to 470 and the EC₅₀ values ranged from 27 to 83 nM. No detectable binding was observed on HEK293 cells.

[4] = target: T1, human BCMA on cells (endogenous, on …); test: flow cytometry on OPM-2 cells, Alexa647 conjugate
Experimental: as §1

B1: REGN5458 (bsAb25441D), anti-BCMA x anti-CD3 bispecific antibody (bispecific antibody, V domains shown)
VH 1: EVQLVESGGGLVQPGGSLRLSCAASGFTFSNFWMTWVRQAPGKGLEWVANMNQDGSEKYYVDSVKGRFTISRDNAKSSLYLQMNSLRAEDTAVYYCARDREYCISTSCYDDFDYWGQGTLVTVSS
VH 2: EVQLVESGGGLVQPGRSLRLSCAASGFTFDDYSMHWVRQAPGKGLEWVSGISWNSGSKGYADSVKGRFTISRDNAKNSLYLQMNSLRAEDTALYYCAKYGSGYGKFYHYGLDVWGQGTTVTVSS
VL: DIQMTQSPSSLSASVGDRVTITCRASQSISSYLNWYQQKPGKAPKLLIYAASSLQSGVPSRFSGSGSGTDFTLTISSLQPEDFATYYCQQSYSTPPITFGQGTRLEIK
notes: Two different heavy chains paired with a common light chain; human Fc (captured by anti-human Fc in SPR); also called bsAb25441D9; mAb25441D
- MFI fold change over cells incubated in media only, Molp8, 18 h with 67 nM antibody, then stained with the same antibody [1]: 2.3 fold
- MFI fold change over cells incubated in media only, Molp8, 18 h with 667 nM antibody, then stained with the same antibody [1]: 4.5 fold
- EC50 [2]: 46.6 nM

B2: REGN5459 (bsAb25442D), anti-BCMA x anti-CD3 bispecific antibody (bispecific antibody, V domains shown)
VH 1: EVQLVESGGGLVQPGGSLRLSCAASGFTFSNFWMTWVRQAPGKGLEWVANMNQDGSEKYYVDSVKGRFTISRDNAKSSLYLQMNSLRAEDTAVYYCARDREYCISTSCYDDFDYWGQGTLVTVSS
VH 2: EVQLVESGGGLVQPGRSLRLSCAASGFTFDDYSMHWVRQAPGKGLEWVSGISWNSGSIGYADSVKGRFTISRDNAKNSLYLQMNSLRAEDTALYYCAKYGSGYGKFYYYGMDVWGQGTTVTVSS
VL: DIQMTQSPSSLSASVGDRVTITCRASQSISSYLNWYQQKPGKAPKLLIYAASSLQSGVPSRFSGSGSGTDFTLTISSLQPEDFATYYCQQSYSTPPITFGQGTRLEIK
notes: also called mAb25442D; mAb25442D-A647
- EC50 [3]: 83 nM
- EC50 [4]: 57 nM

From US20220306758A1 (Regeneron, published 2022)
